Measurements published in article PMC13038214, “TNFSF13 insufficiency disrupts human colonic epithelial cell growth and associated B cell dynamics” (The Journal of Clinical Investigation, 2026).

T1: FAS ligand (FASL) used as analyte in SPR (human, UniProt P48023 103-281)
T1 construct: FAS ligand (FASL), the protein flowed over immobilised FAS in SPR as positive control; also called rFASL; recombinant human FAS ligand
T1 sequence (looked up): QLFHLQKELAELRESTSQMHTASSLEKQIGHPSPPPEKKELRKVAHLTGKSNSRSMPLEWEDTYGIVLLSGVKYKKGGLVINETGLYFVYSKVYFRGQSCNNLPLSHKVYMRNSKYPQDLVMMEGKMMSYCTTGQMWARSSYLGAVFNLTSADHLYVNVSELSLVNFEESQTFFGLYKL

B1: TNFSF13 used as analyte in SPR (ligand, human, UniProt O75888 105-250, looked up)
chain: AVLTQKQKKQHSVLHLVPINATSKDDSDVTEVMWQPALRRGRGLQAQGYGVRIQDAGVYLLYSQVLFQDVTFTMGQVVSREGQGRQETLFRCIRSMPSHPDRAYNSCYSAGVFHLHQGDILSVIIPRARAKLNLSPHGTFLGFVKL
notes: TNFSF13 (APRIL), the protein flowed over immobilised FAS in SPR; also called TNSF13; APRIL
B2: FAS immobilised for SPR (receptor, human, UniProt P25445 26-173, looked up)
chain: QVTDINSKGLELRKTVTTVETQNLEGLHHDGQFCHKPCPPGERKARDCTVNGDEPDCVPCQEGKEYTDKAHFSSKCRRCRLCDEGHGLEVEINCTRTQNTKCRCKPNFFCNSTVCEHCDPCTKCEHGIIKECTLTSNTKCKEEGSRSN
notes: FAS receptor, the protein immobilised in SPR; also called FAS receptor

Tests used:
FAS immobilised for SPR = molecular target: B2; experiment: SPR; FAS immobilised; TNFSF13 or FASL at various concentrations; sensorgrams fitted to a 1:1 kinetic binding model; n = 3 independent experiments; conditions: both partners purified
[1] = molecular target: T1, FAS ligand (FASL) used as analyte in SPR; experiment: as above; conditions: both partners purified

Binder | Kd (FAS immobilised for SPR) [nM] | Kd [1] [nM]
B1 | 60 | –
B2 | – | 4.09
